# From US20160251440A1 (Ablynx, published 2016)
# B1: 57A07 (VHH)
# VHH: EVQLVESGGGLVQAGGSLRLSCAASGSIFSGNVMGWYRRQAPGKEREWVAAIASGGSIYYRDSVKGRFTISRDNAKNTVYLQMNSLKPEDTAVYYCNSHPPTLPYWGLGTQVTVSS
# notes: also called CD123#1; A0110057A07
# B2: 55A01 (VHH)
# VHH: EVQLVESGGGSVQAGGSLRLSCTTSGRALNMYVMGWFRQAPGNEREFVAATSSSGGSTSYPDSVKGRFTISRDNAKNTVYLQMNSLKPEDTAAYRCAASPYVSTPTMNILEEYRYWGLGTQVTVSS
# notes: also called CD123#2; A0110055A01
# B3: 57A07-35GS-281F12 (bispecific antibody)
# chain: EVQLVESGGGLVQAGGSLRLSCAASGSIFSGNVMGWYRRQAPGKEREWVAAIASGGSIYYRDSVKGRFTISRDNAKNTVYLQMNSLKPEDTAVYYCNSHPPTLPYWGQGTLVTVSSGGGGSGGGGSGGGGSGGGGSGGGGSGGGGSGGGGSEVQLVESGGGLVQAGDSLRLSCAASGRAFSRYAMGWFRQAPGKEREFVAAIGWGPSKTNYADSVKGRFTISRDNAKNTVYLQMNTLKPEDTAVYSCAAKFVNTDSTWSRSEMYTYWGQGTLVTVSS
# notes: FLAG3-His6 also made; also called CD123#1-CXCR4#2; 57A07-281F12
# B4: IL12Rb1#30: 148C09 (VHH)
# VHH: EVQLVESGGGLVQTGGSLRLSCAASGRTPRLVAMGWFRQTPGKEREFVGEIILSKGFTYYADSVKGRFTISRVNAKNTITMYLQMNSLKSEDTAVYYCAGRQNWSGSPARTNEYEYWGQGTLVTVSS
# notes: also called IL12Rβ1#30; LG148C09
# B5: 281F12-35GS-03F11 (bispecific antibody)
# chain: EVQLVESGGGLVQAGDSLRLSCAASGRAFSRYAMGWFRQAPGKEREFVAAIGWGPSKTNYADSVKGRFTISRDNAKNTVYLQMNTLKPEDTAVYSCAAKFVNTDSTWSRSEMYTYWGQGTQVTVSSGGGGSGGGGSGGGGSGGGGSGGGGSGGGGSGGGGSEVQLVESGGGSVQPGGSLTLSCGTSGRTFNVMGWFRQAPGKEREFVAAVRWSSTGIYYTQYADSVKSRFTISRDNAKNTVYLEMNSLKPEDTAVYYCAADTYNSNPARWDGYDFRGQGTQVTVSS
# notes: also called CXCR4#2-35GS-CD4#8; CXCR4#2-CD4#8
# How the values were obtained:
# [1] = target: T1, human IL-3Rα (CD123), cell-expressed (human, UniProt P26951 19-378); assay: FACS, MOLM-13 cells
# T1 construct: whole, on cells; also called IL-3Ra; Hek-IL-3Rα
# [2] = target: T2, recombinant IL-3Rα ectodomain (human, UniProt P26951 19-305); assay: competition ELISA, coated mAb 7G3 + biotinylated IL-3Rα ectodomain
# T2 construct: extracellular domain; also called recombinant IL-3Ra; biotinylated-IL-3Rα ectodomain
# T2 sequence (looked up): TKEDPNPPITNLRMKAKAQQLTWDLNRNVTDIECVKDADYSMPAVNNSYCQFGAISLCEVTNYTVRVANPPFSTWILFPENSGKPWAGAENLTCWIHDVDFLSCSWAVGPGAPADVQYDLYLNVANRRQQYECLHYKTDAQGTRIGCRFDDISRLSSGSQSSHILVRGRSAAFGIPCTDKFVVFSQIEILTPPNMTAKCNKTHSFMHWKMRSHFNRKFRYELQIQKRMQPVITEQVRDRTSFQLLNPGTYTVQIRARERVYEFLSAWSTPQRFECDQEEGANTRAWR
# [3] = target: T2, recombinant IL-3Rα ectodomain; assay: SPR ProteOn, immobilised IL-3Rα ectodomain
# [4] = target: T1, human IL-3Rα (CD123), cell-expressed; assay: flow cytometry on Molm-13 cells; EC50(M) printed in the legend box beside the curves
# [5] = target: T1, human IL-3Rα (CD123), cell-expressed; assay: FACS, HEK293T-IL-3Rα cells
# [6] = target: T3, human CXCR4 (on cells, viral lipoparticles or membrane extracts) (human, UniProt P61073 1-352); assay: ELISA on coated CXCR4 viral lipoparticles (both upper panels)
# T3 construct: whole, on cells; also called hCXCR4 VLPs; CXCR4-lip
# [7] = target: T1, human IL-3Rα (CD123), cell-expressed; assay: FACS, THP-1 cells
# [8] = target: T2, recombinant IL-3Rα ectodomain; assay: ELISA on recombinant IL-3Ra ectodomain (lower right panel)
# [9] = target: T2, recombinant IL-3Rα ectodomain; assay: ELISA on recombinant IL-3Ra ectodomain (panel 'IL-3Ra ELISA', lower left)
# [10] = target: T3, human CXCR4 (on cells, viral …); assay: flow cytometry at one concentration on Jurkat E6-1 cells (CXCR4+/CD123-), anti-FLAG detection
# [11] = target: T3, human CXCR4 (on cells, viral …); assay: ELISA on coated CXCR4 viral lipoparticles (panel 'CXCR4 VLP Binding', upper left)
# [12] = target: T4, CXCR4 and IL-3Rα (CD123) co-expressed on MOLM-13 / THP-1 cells (human, UniProt P61073 1-352; P26951 19-378); assay: flow cytometry at one concentration, 4.6 nM, on MOLM-13 cells (CXCR4+/CD123+), anti-FLAG detection
# T4 construct: whole, on cells; two separate membrane proteins on one cell, not a complex; target of bispecifics on double-positive cells; also called CXCR4+/CD123+ cells
# [13] = target: T5, human IL12Rβ1 extracellular domain Fc-fusion (human, UniProt P42701 24-545); assay: competition ELISA, coated IL-12 + 2 nM IL12Rβ1-Fc
# T5 construct: extracellular domain; bought; also called IL12Rβ1-Fc; hIL-12Rβ1-Fc; not shown: Fc part, captured by anti-hIgG
# [14] = target: T5, human IL12Rβ1 extracellular domain …; assay: competition ELISA, coated IL-12 + IL12Rβ1-Fc
# [15] = target: T6, human CD4, cell-expressed (human, UniProt P01730 26-458); assay: flow cytometry on MOLM-13 cells (CD4, no IL12R or IL23R), lower left panel
# T6 construct: whole, on cells
# [16] = target: T7, human IL12Rβ1, cell-expressed (human, UniProt P42701 24-662); assay: FACS, activated human T cells
# T7 construct: whole, on cells; in the context of the heterodimeric receptor; also called IL12Rb1
# [17] = target: T5, human IL12Rβ1 extracellular domain …; assay: competition ELISA, coated IL-23 + 2 nM IL12Rβ1-Fc
# [18] = target: T5, human IL12Rβ1 extracellular domain …; assay: SPR Biacore T100, captured IL12Rβ1-Fc
# [19] = target: T7, human IL12Rβ1, cell-expressed; assay: cell-based or functional assay
# [20] = target: T5, human IL12Rβ1 extracellular domain …; assay: competition ELISA, coated IL-23 + IL12Rβ1-Fc
# [21] = target: T7, human IL12Rβ1, cell-expressed; assay: cell-based or functional assay; remark: listed apart in the source
# [22] = target: T3, human CXCR4 (on cells, viral …); assay: cell-based or functional assay
# [23] = target: T8, CXCR4 and CD4 co-expressed on cells (MOLM-13, THP-1, MT-4, PBMC; Jurkat CD4 low) (human, UniProt P61073 1-352; P01730 26-458); assay: FACS, Jurkat E6-1 cells (CXCR4+/CD4 low)
# T8 construct: whole, on cells; two separate membrane proteins on one cell, not a complex; target of bispecifics; also called CXCR4+/CD4+ cells
# [24] = target: T8, CXCR4 and CD4 co-expressed on cells …; assay: cell-based or functional assay
# [25] = target: T8, CXCR4 and CD4 co-expressed on cells …; assay: cell-based or functional assay; remark: listed apart in the source
# [26] = target: T8, CXCR4 and CD4 co-expressed on cells …; assay: FACS, MOLM-13 cells (CXCR4+/CD4+)
# [27] = target: T8, CXCR4 and CD4 co-expressed on cells …; assay: cell-based or functional assay; remark: listed apart in the source
# [28] = target: T8, CXCR4 and CD4 co-expressed on cells …; assay: cell-based or functional assay; remark: listed apart in the source
# [29] = target: T8, CXCR4 and CD4 co-expressed on cells …; assay: FACS, THP-1 cells
# T8 sequence (P61073 whole entry, chain 1 of 2, other chains not shown): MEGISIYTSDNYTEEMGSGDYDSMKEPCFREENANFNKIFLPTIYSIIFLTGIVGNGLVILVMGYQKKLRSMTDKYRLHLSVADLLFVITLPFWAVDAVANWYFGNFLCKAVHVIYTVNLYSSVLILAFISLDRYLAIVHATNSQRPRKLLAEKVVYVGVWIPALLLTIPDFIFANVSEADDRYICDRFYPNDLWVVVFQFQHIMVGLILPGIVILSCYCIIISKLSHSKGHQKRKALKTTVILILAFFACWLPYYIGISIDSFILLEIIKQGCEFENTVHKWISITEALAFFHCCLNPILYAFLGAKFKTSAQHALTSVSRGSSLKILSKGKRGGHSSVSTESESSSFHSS
# T3 sequence (P61073 whole entry): as the sequence (P61073 whole entry, chain 1 of 2, other chains not shown) above
# T4 sequence (P61073 whole entry, one chain of several): as the sequence (P61073 whole entry, chain 1 of 2, other chains not shown) above
binder,measurement,setting,value
B1,EC50,[1],0.66 nM
same,IC50,[2],1.2 nM
same,Kd,[3],0.783 nM
same,koff,[3],0.00081 s⁻¹
same,kon,[3],1e+06 M⁻¹ s⁻¹
same,EC50,[4],0.67 nM
same,EC50,[5],0.24 nM
same,binding result,[6],no binding (tested: about 1E-5 M)
same,EC50,[7],1.3 nM
same,EC50 (read off the curve),[8],~0.5 nM
B2,EC50 (read off the curve),[9],~1 nM
same,EC50,[1],8.2 nM
same,IC50,[2],40 nM
same,Kd,[3],17.1 nM
same,koff,[3],0.0014 s⁻¹
same,kon,[3],84000 M⁻¹ s⁻¹
same,EC50,[4],13 nM
same,EC50,[5],1.1 nM
same,EC50,[7],11 nM
same,binding result,[10],no binding (tested: 4.6 nM)
B3,binding result,[11],binds
same,EC50 (read off the curve),[8],~0.5 nM
same,binding result,[12],binds
B4,IC50,[13],3.7 nM
same,IC50,[14],3.7 nM
same,binding result,[15],no binding (tested: 1E-6 M)
same,EC50,[16],1.3 nM
same,IC50,[17],1.5 nM
same,Kd,[18],3.3 nM
same,koff,[18],0.0015 s⁻¹
same,kon,[18],450000 M⁻¹ s⁻¹
same,"IC50, IL-12 induced IFNγ release, PBMC D840",[19],17 nM
same,"IC50, IL-12 induced IFNγ release, T cells D839",[19],140 nM
same,IC50,[20],1.5 nM
same,"IC50, IL-17 release, PBMC D840",[21],35.5 nM
B5,"Fold increase vs CXCR4#2, Jurkat E6-1",[22],0.8 fold
same,"Fold increase vs CXCR4#2, MOLM-13",[22],146 fold
same,"IC50, SDF-1 chemotaxis, Jurkat E6-1",[22],110 nM
same,"IC50, SDF-1 chemotaxis, MOLM-13",[22],0.59 nM
same,EC50,[23],11 nM
same,"IC50, HIV-1 BaL (R5), PBMC",[24],2.46 nM
same,"IC50, HIV-1 NL4.3 (X4), MT-4",[24],0.24 nM
same,"IC50, HIV-1 NL4.3 (X4), PBMC",[24],0.37 nM
same,"IC50, HIV-1 NL4.3 (X4), U87",[24],2.67 nM
same,"enhancement vs monovalent CD4#8, HIV-1 BaL, PBMC",[25],~200 fold
same,EC50,[26],1.1 nM
same,"IC50, HIV-1 NL4.3 wt, MT-4",[27],0.187 nM
same,"IC50, NL4.3 2G12 res., MT-4",[27],0.11 nM
same,"IC50, NL4.3 AMD-3100 res., MT-4",[27],1.13 nM
same,"IC50, NL4.3 CD4#8 res., MT-4",[27],0.31 nM
same,"IC50, NL4.3 CXCL-12res., MT-4",[27],0.433 nM
same,"IC50, NL4.3 CXCR4#2 res, MT-4",[27],1.4 nM
same,"IC50, HIV-1 HE, MT-4",[28],0.0906 nM
same,"IC50, HIV-1 NL4.3, MT-4",[28],0.187 nM
same,"IC50, HIV-2 ROD, MT-4",[28],0.3 nM
same,EC50,[29],0.67 nM
